The target of one series is T1, LUX1-MBP (Glycine max, UniProt K7LTA3 1-306).
T1 sequence: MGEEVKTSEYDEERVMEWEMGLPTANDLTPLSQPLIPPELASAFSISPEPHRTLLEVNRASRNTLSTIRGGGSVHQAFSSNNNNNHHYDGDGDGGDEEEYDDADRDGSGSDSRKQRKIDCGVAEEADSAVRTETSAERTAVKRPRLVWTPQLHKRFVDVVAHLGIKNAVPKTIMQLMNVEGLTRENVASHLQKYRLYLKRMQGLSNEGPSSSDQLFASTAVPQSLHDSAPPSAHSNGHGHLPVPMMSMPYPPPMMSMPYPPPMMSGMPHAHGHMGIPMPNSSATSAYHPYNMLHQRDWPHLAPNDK
Nature of the series: EMSA; LightShift Chemiluminescent EMSA Kit (Pierce) binding buffer, composition, salt and pH not stated; room temperature 20 min; 6% native PAGE. As to conditions: protein: recombinant; tags: MBP; label: biotin; blunt.

For another series, the target named is T2, INN1-MBP (ELF3a) (Glycine max, UniProt K7KI62 1-714).
T2 sequence: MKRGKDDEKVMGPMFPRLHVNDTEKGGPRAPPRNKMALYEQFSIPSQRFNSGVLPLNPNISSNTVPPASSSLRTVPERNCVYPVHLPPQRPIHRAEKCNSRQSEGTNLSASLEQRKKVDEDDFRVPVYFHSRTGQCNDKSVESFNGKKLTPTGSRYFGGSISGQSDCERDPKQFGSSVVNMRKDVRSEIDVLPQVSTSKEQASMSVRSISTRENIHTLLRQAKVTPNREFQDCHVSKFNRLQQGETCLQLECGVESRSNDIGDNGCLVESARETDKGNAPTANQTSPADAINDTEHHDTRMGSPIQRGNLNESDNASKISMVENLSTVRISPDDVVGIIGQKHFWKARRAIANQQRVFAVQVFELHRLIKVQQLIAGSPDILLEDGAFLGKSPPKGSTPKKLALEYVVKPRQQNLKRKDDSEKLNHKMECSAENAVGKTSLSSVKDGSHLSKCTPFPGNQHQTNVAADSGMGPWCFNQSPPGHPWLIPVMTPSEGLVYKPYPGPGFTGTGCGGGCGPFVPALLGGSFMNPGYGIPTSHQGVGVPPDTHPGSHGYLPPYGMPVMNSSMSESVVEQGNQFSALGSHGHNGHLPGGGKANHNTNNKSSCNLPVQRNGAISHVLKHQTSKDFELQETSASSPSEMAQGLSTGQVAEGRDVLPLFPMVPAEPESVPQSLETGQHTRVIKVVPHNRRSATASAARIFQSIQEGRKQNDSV
The experiment in a line: EMSA; INN1 alone; probe taken to be the ENOD40 probe of Table S1; LightShift Chemiluminescent EMSA Kit (Pierce) binding buffer, composition, salt and pH not stated; room temperature 20 min; 6% native PAGE. As to conditions: protein: recombinant; tags: MBP; label: biotin; blunt. In general terms: In EMSA bound probe runs differently from free probe, usually more slowly.

B1: probe-ENOD40 (P1 region) (dsDNA)
DNA 1: TTGACATTCATATCCTTTGTATTTCAATTAGATTAGATATGTTCTACGGA
DNA 2: TCCGTAGAACATATCTAATCTAATTGAAATACAAAGGATATGAATGTCAA
With B1, the binding result is reported as “binds” with LUX1-MBP and “no binding” in the series with INN1-MBP (ELF3a).

These data come from PMC12120873, “Evening complex component ELF3 interacts with LUX proteins to repress soybean root nodulation”.
